The values that follow come from article PMC6700365, “Expression and Characterization of Carotenoid Cleavage Oxygenases From Herbaspirillum seropedicae and Rhodobacteraceae bacterium Capable of Biotransforming Isoeugenol and 4-Vinylguaiacol to Vanillin” (Frontiers in Microbiology, 2019).

Holding throughout (assay): HPLC of vanillin formed
Substrate in data set [1]: C=Cc1ccc(O)c(OC)c1
Type of data set: biochemical, Paracoccaceae bacterium. Conditions: measured under optimal conditions (pH 9.0, 35 °C), 10% glycerol. The source says:
(§1) HPLC of vanillin formed on RbCCO

Substrate in data set [2]: CC=Cc1ccc(O)c(OC)c1
Type of data set: biochemical, Paracoccaceae bacterium. The following applies: measured under optimal conditions (pH 9.0, 35 °C), 10% glycerol.
From the text: as §1

Substrate in data set [3]: C=Cc1ccc(O)c(OC)c1
Type of data set: biochemical, Herbaspirillum seropedicae. Conditions: measured under optimal conditions (pH 7.0, 40 °C), 10% glycerol. The source says: (§2) HPLC of vanillin formed on HsCCO

Substrate in data set [4]: CC=Cc1ccc(O)c(OC)c1
Type of data set: biochemical, Herbaspirillum seropedicae. The following applies: measured under optimal conditions (pH 7.0, 40 °C), 10% glycerol.
From the text: as §2

B1: RbCCO (Paracoccaceae bacterium) (protein)
chain: MTRPFPKTPEFSGSLYRPARFEGSVFDLEVEGRVPEDIHGTFFQVAPDPQFPPMRGNDIFFNGDGAVHAFRFANGAVDFQRRYVMTDRLKAQRAERESLFGLYRNGYTNDPRADGVHMGTANTNVVQHNGRLLALKEDSPPYALDPVTLETHGLFDFDGQLTSPTFTAHPKFDPETGAMLCFGYEAKGEATPDIVYYEIDSQGRKQREIWLRGPYAAMIHDFAVTRNYIIFPLMPLTPDLDRIRKGGNHFEWQPGLEQVFGVLPRDGDGTDVRWFTAPNGFQGHTLNAFDDGRGRIFVDMPVTDGNIFYFFPQSDGHVPPPETLSSRMMRWTFDMNNPGNALSMAPITDFACEFPKCDPRYSGHEYRHGFVIGMDMTRPFDAERLGAPPFQFFNLLSHVDVATRRVKSWFADAQTCFQEPVFVPRSANAPEGEGWVIALANRLVDQTTDLVILDAQHMDEGPVAVVHLPVRLRMSLHGSWVPAAA
notes: codon-optimized gene, BamHI/XhoI in pET-29a(+), His-tagged, co-expressed with GroEL/GroES (pGro7) in E. coli BL21(DE3), Ni-NTA, about 55 kDa on SDS-PAGE
Regarding B1, the Km in data set [1] is 850 µM; in data set [2] it was 2240 µM. For the same protein, the values for the Vmax in data set [1] and in data set [2] were 0.02 µmol/min/mg and 0.0765 µmol/min/mg, respectively.

B2: HsCCO (Herbaspirillum seropedicae) (protein)
chain: MSMQYPATPEFQGMYRPSRVEASVQALEVVGQLPAQLQGCFYQVAPDPAYPPMLGQDIFFNGDGMVSAFRFGQGQVSLTRRYVQTERLKAQRQAGRSLNGIYRNIYTNAPEAASDNTTANTTVIKHAGVLLALKEDSLPYAMDPVTLETRGLWDFHGQVKSATFTAHPKICPQSGSMLCFAYEAKGDGTPDIAYYEIDAAGKLIRETWFQAPYAAMIHDFAVTENYVIFPIIPLTVDVERMKRGGQHFQWQPDLPQLFGILPRAGDAADVRWFYGPADGFQGHTLNAYELGRKLILDMPVTSGNVFYFFPQADGFVPSPETLKSGLARWTFDLDADNDQVMPEPLTQFPCEFPRCDERYSGRPYQHGFMLAFDPTLPFDAAALGAPPFQFFNQLAHVNVRTGETRTWYAGDAHCFQEPVFVPRSADAPEGDGFLLSLLNDLRSGATELVILDTHDLSAGPVARVQIPLRMRMSLHGNWSSD
notes: codon-optimized gene, NdeI/XhoI in pET-29a(+), His-tagged, E. coli BL21(DE3), Ni-NTA, about 55 kDa on SDS-PAGE
In the case of B2, in data set [3], the Km came to 1650 µM and the Vmax amounted to 0.0279 µmol/min/mg. In addition, in data set [4], the Km was found to be 1550 µM and the Vmax was 0.0741 µmol/min/mg.
